The values that follow come from PMC2852523 (The Journal of Membrane Biology, 2010).

Usually stoichiometry N stands for the number of molecules, sites or subunits per partner or assembly.

Data set [1] concerns the molecule itself. Nature of the data set: SDS-PAGE.
In data set [2] the target is T1, Potassium channel KcsA, wild-type (Streptomyces lividans), P0A334.
T1 chain: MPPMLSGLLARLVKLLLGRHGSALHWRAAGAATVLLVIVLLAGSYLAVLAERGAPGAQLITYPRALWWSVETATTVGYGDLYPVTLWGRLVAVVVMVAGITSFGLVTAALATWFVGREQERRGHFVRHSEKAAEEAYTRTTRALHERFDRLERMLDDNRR
Nature of the data set: SDS-PAGE. As to conditions: remark: other sources report otherwise.

B1: ΔN-KcsA (KcsA lacking the first 18 amino acids, Δ1–18) (domain or fragment, Streptomyces lividans, UniProt P0A334 19-160, looked up)
chain: RHGSALHWRAAGAATVLLVIVLLAGSYLAVLAERGAPGAQLITYPRALWWSVETATTVGYGDLYPVTLWGRLVAVVVMVAGITSFGLVTAALATWFVGREQERRGHFVRHSEKAAEEAYTRTTRALHERFDRLERMLDDNRR
On to B1, for which the “stoichiometry N” value in data set [1] came out at 4.

B2: Potassium channel KcsA, wild-type, P0A334 1-160 (natural protein)
chain: T1 chain
Turning to B2, the stoichiometry N in data set [2] is 4.
